This assay deals with cell surface-associated mesothelin (UniProt Q13421). Put plainly: flow cytometry titration of IgG1 m912 on H9 cells, medium fluorescent units.

IgG1 m912 (antibody) registered a 50% binding of 5 to 10 nM.

These data come from patent US20110020361A1.
